According to doi:10.1101/2025.09.29.679124 (bioRxiv, 2025):

How the values were obtained:
[1] = target: T1, MBP-tagged D3 (2-720) co-expressed with untagged ASK1 (rice (Oryza sativa) | Arabidopsis, UniProt Q5VMP0 2-720; Q39255 1-160); assay: pull-down
T1 sequence (looked up) 1: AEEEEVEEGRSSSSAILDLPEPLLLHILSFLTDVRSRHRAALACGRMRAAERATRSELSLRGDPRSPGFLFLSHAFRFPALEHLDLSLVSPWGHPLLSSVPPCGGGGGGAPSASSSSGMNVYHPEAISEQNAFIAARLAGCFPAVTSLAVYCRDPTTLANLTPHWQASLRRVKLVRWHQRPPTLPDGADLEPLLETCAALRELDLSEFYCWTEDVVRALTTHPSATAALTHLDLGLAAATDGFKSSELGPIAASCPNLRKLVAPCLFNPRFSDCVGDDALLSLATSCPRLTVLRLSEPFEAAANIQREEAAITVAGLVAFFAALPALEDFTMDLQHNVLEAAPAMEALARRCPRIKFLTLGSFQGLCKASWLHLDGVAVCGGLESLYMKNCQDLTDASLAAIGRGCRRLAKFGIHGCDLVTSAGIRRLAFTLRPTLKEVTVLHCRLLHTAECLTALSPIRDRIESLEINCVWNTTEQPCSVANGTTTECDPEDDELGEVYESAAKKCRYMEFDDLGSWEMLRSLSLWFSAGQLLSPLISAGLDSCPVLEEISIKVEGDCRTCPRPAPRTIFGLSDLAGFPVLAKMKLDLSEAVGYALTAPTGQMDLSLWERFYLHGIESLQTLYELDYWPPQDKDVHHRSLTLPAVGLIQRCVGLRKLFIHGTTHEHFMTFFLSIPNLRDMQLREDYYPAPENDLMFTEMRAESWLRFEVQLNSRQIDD
T1 sequence (looked up) 2: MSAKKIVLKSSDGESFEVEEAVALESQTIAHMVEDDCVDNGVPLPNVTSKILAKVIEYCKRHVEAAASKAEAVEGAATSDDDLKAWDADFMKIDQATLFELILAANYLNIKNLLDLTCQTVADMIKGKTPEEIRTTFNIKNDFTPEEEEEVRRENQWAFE

[2] = target: T2, MBP-His-D53-D2 (718-1131) (rice (Oryza sativa), UniProt Q2RBP2 718-1131); assay: pull-down
T2 sequence (looked up): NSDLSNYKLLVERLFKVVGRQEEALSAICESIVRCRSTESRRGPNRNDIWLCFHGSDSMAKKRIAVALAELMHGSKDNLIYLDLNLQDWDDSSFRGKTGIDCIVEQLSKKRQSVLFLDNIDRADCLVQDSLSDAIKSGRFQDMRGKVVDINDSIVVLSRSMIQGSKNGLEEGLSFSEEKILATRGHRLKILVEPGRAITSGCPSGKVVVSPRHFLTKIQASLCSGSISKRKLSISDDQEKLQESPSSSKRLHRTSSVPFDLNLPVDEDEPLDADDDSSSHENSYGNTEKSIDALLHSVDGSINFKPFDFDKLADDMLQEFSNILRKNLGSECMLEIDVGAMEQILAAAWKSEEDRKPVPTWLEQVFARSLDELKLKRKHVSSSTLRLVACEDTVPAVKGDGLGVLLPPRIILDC

B1: Glutathione-S-transferase (GST)-tagged D14L (receptor, rice (Oryza sativa), UniProt Q10J20 1-271, looked up)
chain: MGIVEEAHNLRVVGEGKRGVIVLAHGFGTDQSVWKHLVPHLVADYRVVLFDTMGAGPTNPDYFDFSRYATLEGYALDLLAILQELRVASCIYVGHSVSAVIGAIASISRPDLFSKLVLLSASPRYLNDVDYYGGFEQEDLDELFEAMGSNYKAWCSGFAPLCVGGDMESVAVQEFSRTLFNIRPDIALSVAQTIFQSDVRSLLPLVTVPCHIVQSTKDLAVPVVVSEYLHKHLGGDSIVEVMPSEGHLPQLSSPDIVIPVLLRHIQHDIAV
[1]
  binding result: binds

B2: GST-D14 (50-318) (receptor, rice (Oryza sativa), UniProt Q10QA5 50-318, looked up)
chain: APSGAKLLQILNVRVVGSGERVVVLSHGFGTDQSAWSRVLPYLTRDHRVVLYDLVCAGSVNPDHFDFRRYDNLDAYVDDLLAILDALRIPRCAFVGHSVSAMIGILASIRRPDLFAKLVLIGASPRFLNDSDYHGGFELEEIQQVFDAMGANYSAWATGYAPLAVGADVPAAVQEFSRTLFNMRPDISLHVCQTVFKTDLRGVLGMVRAPCVVVQTTRDVSVPASVAAYLKAHLGGRTTVEFLQTEGHLPHLSAPSLLAQVLRRALARY
[2]
  binding result: binds
